According to publication PMC4499159:
Each block holds one substance with its values, some of them ahead of it.

Tests used:
[1] = biological target: DNA polymerase beta (Polβ) (rat) (UniProt P06766); assay: fluorescence titration; details: 50 mM HEPES pH 8.0, 100 mM NaCl, 4 mM DTT (+10 mM EDTA for APE1), labelled protein from 20 nM, temperature not stated
[2] = biological target: AP endonuclease 1 (APE1) (human) (UniProt P27695); assay: fluorescence titration; details: 50 mM HEPES pH 8.0, 100 mM NaCl, 4 mM DTT (+10 mM EDTA for APE1); labelled protein from 20 nM; temperature not stated
[3] = biological target: XRCC1 (human) (UniProt P18887); assay: fluorescence titration; details: 50 mM HEPES pH 8.0, 100 mM NaCl, 4 mM DTT (+10 mM EDTA for APE1), labelled protein from 20 nM, temperature not stated
[4] = biological target: X-ray repair cross-complementing protein 1 (human) (UniProt P18887); assay: dynamic light scattering; individual proteins or equimolar mixtures at 6 μM; 25 mM HEPES pH 7.5, 100 mM NaCl, 1 mM DTT; 24°C; hydrodynamic radius compared with predicted values
[5] = biological target: apurinic/apyrimidinic endonuclease 1 (human) (UniProt P27695); assay: other fluorescence titration; FAM-labelled protein at 40 nM (fixed) titrated with the unlabelled partner; 50 mM HEPES pH 8.0, 100 mM NaCl, 4 mM DTT; excitation 485 nm, emission 520 nm; EC50 from a four-parameter logistic fit, an apparent equilibrium dissociation constant
[6] = biological target: X-ray repair cross-complementing protein 1 (human) (UniProt P18887); assay: other fluorescence titration; TAF-labelled XRCC1 at 40 nM (fixed) titrated with the unlabelled partner; 50 mM HEPES pH 8.0, 100 mM NaCl, 4 mM DTT; EC50 from a four-parameter logistic fit, apparent
[7] = biological target: apurinic/apyrimidinic endonuclease 1 (human) (UniProt P27695); assay: dynamic light scattering; individual proteins or equimolar mixtures at 6 μM; 25 mM HEPES pH 7.5, 100 mM NaCl, 1 mM DTT; 24°C; hydrodynamic radius compared with predicted values
[8] = biological target: DNA polymerase β (rat) (UniProt P06766); assay: FRET or BRET; FAM-labelled protein (donor, 40 nM, fixed) titrated with the TMR-labelled partner (acceptor); corrected for acceptor signal; E = 1 - Fda/Fd; EC50 is that of the TMR-labelled partner; 50 mM HEPES pH 8.0, 100 mM NaCl, 4 mM DTT; apparent
[9] = biological target: apurinic/apyrimidinic endonuclease 1 (human) (UniProt P27695); assay: as above
[10] = biological target: FAM-labeled human apurinic/apyrimidinic endonuclease 1 (human) (UniProt P27695); assay: other fluorescence titration; 40 nM FAM-APE1 premixed with 160 nM incised AP-DNA, titrated with unlabeled partner; 50 mM HEPES pH 8.0, 100 mM NaCl, 4 mM DTT, 10 mM EDTA; EC50 from four-parameter fit, apparent
[11] = biological target: FAM-labeled human apurinic/apyrimidinic endonuclease 1 (human) (UniProt P27695); assay: other fluorescence titration; 40 nM FAM-APE1 premixed with 160 nM gap-DNA, titrated with unlabeled partner; 50 mM HEPES pH 8.0, 100 mM NaCl, 4 mM DTT, 10 mM EDTA; EC50 from four-parameter fit, apparent
[12] = biological target: FAM-labeled human apurinic/apyrimidinic endonuclease 1 (human) (UniProt P27695); assay: other fluorescence titration; 40 nM FAM-APE1 premixed with 160 nM AP-DNA, titrated with unlabeled partner; 50 mM HEPES pH 8.0, 100 mM NaCl, 4 mM DTT, 10 mM EDTA; EC50 from four-parameter fit, apparent

Substance: GGCGATTAAGTTGGGNAACGTCAGGGTCTTCC / GGAAGACCCTGACGTTACCCAACTTAATCGCC [AP-DNA]
K half ([1]; N16 of strand 1 = THF abasic site): 20 nM

Substance: GGCGATTAAGTTGGGTAACGTCAGGGTCTTCC (double strand) [ds-DNA]
K half [1]: 160 nM
K half [2]: 100 nM
K half [3]: 110 nM

stoichiometry N [4]: 2
EC50 [5]: 76 nM
EC50 [6]: 73 nM
Substance: X-ray repair cross-complementing protein 1 (from UniProt P18887 1-633) (natural protein)

stoichiometry N [7]: 2
EC50 [8]: 90 nM
FRET efficiency E [8]: 0.37
EC50 [9]: 130 nM
EC50 [5]: 120 nM
stoichiometry N [5]: 2
Substance: apurinic/apyrimidinic endonuclease 1 (from UniProt P27695 1-318) (enzyme)

EC50 [10]: 83 nM
EC50 [11]: 51 nM
EC50 [12]: 78 nM
Substance: human X-ray repair cross-complementing protein 1 (from UniProt P18887 1-633) (natural protein)

Substance: nick-pUC19
K half ([1]; nicked by N.Bst9I): 30 nM
K half ([3]; TAF-XRCC1, n 0.60, nicked by N.Bst9I): 10 nM

Substance: pUC19
K half [1]: 2400 nM
K half ([3]; TAF-XRCC1, n 0.63): 1700 nM
